Test results reported in paper PMC12527946, “Structural analyses define the molecular basis of clusterin chaperone function” (Nature Structural & Molecular Biology, 2025).
Values belong to the binder of their own block, whether it stands above or below them.

B2: wild-type human clusterin (WT Clu) (natural protein)
chain 1: DQTVSDNELQEMSNQGSKYVNKEIQNAVNGVKQIKTLIEKTNEERKTLLSNLEEAKKKKEDALNETRESETKLKELPGVCNETMMALWEECKPCLKQTCMKFYARVCRSGSGLVGRQLEEFLNQSSPFYFWMNGDRIDSLLENDRQQTHMLDVMQDHFSRASSIIDELFQDRFFTREPQDTYHYLPFSLPHRRPHFFFPKSRIVR
chain 2: SLMPFSPYEPLNFHAMFQPFLEMIHEAQQAMDIHFHSPAFQHPPTEFIREGDDDRTVCREIRHNSTGCLRMKDQCDKCREILSVDCSTNNPSQAKLRRELDESLQVAERLTRKYNELLKSYQWKMLNTSSLLEQLNEQFNWVSRLANLTQGEDQYYLRVTTVASHTSDSDVPSGVTEVVVKLFDSDPITVTVPVEVSRKNPKFMETVAEKALQEYRKKHREE
modifications: N-glycans (six in the whole protein); five disulfide bonds to the α-chain | N-glycans (six in the whole protein); five disulfide bonds to the β-chain
notes: clusterin β-chain, human, residues 23–227 of the precursor; clusterin α-chain, human, residues 228–449 of the precursor; Almost completely processed by furin into β- and α-chain, which stay disulfide-linked; In the flotation assay it stood in DMPC nanodiscs (Clu–DMPC); also called apolipoprotein J; ApoJ

Experiments:
[1] = molecular target: B2; assay: SEC; D-Rho diluted into PBS to 0.5 μM with 1.5 μM WT Clu, 30 min at 25 °C; soluble fraction on Superose-6, fractions by SDS-PAGE and immunoblotting against Rho and Clu; conditions: both partners purified
[2] = molecular target: the molecule itself; assay: SEC; 10 μM Clu in 20 mM MES-NaOH pH 6.5, HEPES-NaOH pH 7.5 or Tris-HCl pH 8.5, 100 mM NaCl, 1 mM EDTA, overnight or longer on ice; Superdex-200 Increase 3.2/300 at room temperature; monomers and dimers
[3] = molecular target: VLDLR(28–797)Δ(751–779)-C-tag (VLDLR ectodomain) (human, UniProt P98155-2 28-797, Δ(751–779)); assay: ELISA; plate coated with 10 µg/ml VLDLR-ed; Clu or RAP in TBS-C pH 7.4, 2 mM CaCl2, 2% BSA, 0.05% Tween-20, 1 h at room temperature; background binding to BSA subtracted; one-site specific binding fit; conditions: both partners purified
[4] = molecular target: VLDLR(28–797)Δ(751–779)-C-tag (VLDLR ectodomain) (human, UniProt P98155-2 28-797, Δ(751–779), Secreted from HEK293E, glycosylated, Ca2+-bound LDLR repeats, disulfides; C-terminal C-tag left out. Deletion 751-779 taken as printed, in the numbering of the long isoform); assay: as above; conditions: both partners purified

binding result [1]: binds
B1: denatured bovine rhodanese (D-Rho) (enzyme, UniProt P00586 1-297, looked up)
chain: MVHQVLYRALVSTKWLAESVRAGKVGPGLRVLDASWYSPGTREARKEYLERHVPGASFFDIEECRDKASPYEVMLPSEAGFADYVGSLGISNDTHVVVYDGDDLGSFYAPRVWWMFRVFGHRTVSVLNGGFRNWLKEGHPVTSEPSRPEPAIFKATLNRSLLKTYEQVLENLESKRFQLVDSRAQGRYLGTQPEPDAVGLDSGHIRGSVNMPFMNFLTEDGFEKSPEELRAMFEAKKVDLTKPLIATCRKGVTACHIALAAYLCGKPDVAIYDGSWFEWFHRAPPETWVSQGKGGKA
notes: rhodanese (33 kDa), bovine; Denatured in 6 M guanidinium–HCl and 5 mM DTT and diluted 120-fold into buffer; non-native, forms oligomers and aggregates

Binder: B2
stoichiometry N [2]: 2
Kd [3]: ~80 nM

Kd [4]: ~1.2 nM
B3: receptor-associated protein (RAP) (natural protein, UniProt P30533 36-357, looked up)
chain: SREKNQPKPSPKRESGEEFRMEKLNQLWEKAQRLHLPPVRLAELHADLKIQERDELAWKKLKLDGLDEDGEKEARLIRNLNVILAKYGLDGKKDARQVTSNSLSGTQEDGLDDPRLEKLWHKAKTSGKFSGEELDKLWREFLHHKEKVHEYNVLLETLSRTEEIHENVISPSDLSDIKGSVLHSRHTELKEKLRSINQGLDRLRRVSHQGYSTEAEFEEPRVIDLWDLAQSANLTDKELEAFREELKHFEAKIEKHNHYQKQLEIAHEKLRHAESVGDGERVSRSREKHALLEGRTKELGYTVKKHLQDLSGRISRARHNEL
notes: LRPAP1 from plasmid pQTEV-LRPAP1; the signal peptide (amino acids 1–35) was removed; Purification is told in the Supplementary Information; also called LRPAP1; low density lipoprotein receptor-related protein-associated protein 1
